This data set concerns the molecule itself. Nature of the data set: crystal structure; 2.8 Å, MIRAS; space group R32, one molecule in the asymmetric unit, dimer formed across a two-fold crystallographic symmetry axis; crystals from 1.8 M ammonium sulfate, 0.1 M HEPES, pH 7.5, 1-2% PEG 400.

B1: human prolylcarboxypeptidase (PRCP) (enzyme)
chain: KNYSVLYFQQKVDHFGFNTVKTFNQRYLVADKYWKKNGGSILFYTGNEGDIIWFCNNTGFMWDVAEELKAMLVFAEHRYYGESLPFGDNSFKDSRHLNFLTSEQALADFAELIKHLKRTIPGAENQPVIAIGGSYGGMLAAWFRMKYPHMVVGALAASAPIWQFEDLVPCGVFMKIVTTDFRKSGPHCSESIHRSWDAINRLSNTGSGLQWLTGALHLCSPLTSQDIQHLKDWISETWVNLAMVDYPYASNFLQPLPAWPIKVVCQYLKNPNVSDSLLLQNIFQALNVYYNYSGQVKCLNISETATSSLGTLGWSYQACTEVVMPFCTNGVDDMFEPHSWNLKELSDDCFQQWGVRPRPSWITTMYGGKNISSHTNIVFSNGELDPWSGGGVTKDITDTLVAVTISEGAHHLDLRTKNALDPMSVLLARSLEVRHMKNWIRDFYDS
modifications: N-linked glycans at Asn 101, 317, 336, 345 and 415 (Asn 47 not glycosylated); disulfide bridges 215-372, 233-310, 264-343, 364-394
notes: prolylcarboxypeptidase (PRCP), human
In the case of B1, the binding result was “binds”.

These data come from paper PMC2893456, “Structural definition and substrate specificity of the S28 protease family: the crystal structure of human prolylcarboxypeptidase” (BMC Structural Biology, 2010).
